These results are taken from patent US20190060404A1 (published 2019).

One assay concerns the target human FGFR2-Fc (human) (UniProt P21802). Briefly: SPR, FGFR2-Fc fixed on the sensor, VEGF-B167 added. A general note: SPR reads the build-up and loss of mass on a sensor chip optically.
Another assay concerns the target FGFR1-Fc (UniProt P11362). In words: SPR, FGFR1-Fc fixed on the sensor, VEGF-B167 added.
In assay [1] the target is T1, VEGFR2 of C57B16 mouse retina and brain tissue (mouse, UniProt P35918 20-1345, limits assumed).
T1 construct: Endogenous protein in tissue lysate
Briefly: co-immunoprecipitation with anti-FGFR2 antibody from mouse brain and retinal tissue. How it is done:
(§1) Co-immunoprecipitation assay: brain tissues and retinae of the C57B16 mice were separated, and were homogenated after added with RIPA buffer comprising protease and phosphatase inhibitor. Supernatant was obtained by centrifuging. After protein quantification, the supernatant was incubated with anti-FGFR1 antibody at 4° C. overnight. Magnetic beads combined with A/G protein were added to capture the antibody complex. 10% PAGE electrophoresis and transfer to a PVDF film were performed successively for the complex, then the complex was incubated with the primary antibody of VEGFR1, VEGFR2 or FGFR1, and was further incubated with HRP-labeled secondary antibody, ECL luminescence reagent was added to display color in the end.
Co-Immunoprecipitation: brain tissue and retinae were extracted from the C57B16 mice. The C57B16 mice were intravitreally injected with BSA (500 ng/eye), FGF2 (100 ng/eye) or VEGF-B₁₆₇ (500 ng/eye), and their retinae were extracted 1 hour after the injection. The brain tissue and retinae, and the retinae from the injected C57B16 mice were treated by the operational procedure described in Embodiment 5, and incubated with anti-FGFR2 antibody for co-immunoprecipitation (with VEGFR1 or VEGFR2).

Assay [2] addresses T1, VEGFR2 of C57B16 mouse retina and brain …. In words: co-immunoprecipitation with anti-FGFR1 antibody from mouse retina and brain tissue. As for the experimental part: as §1

T1 sequence (P35918 20-1345 limits assumed, one chain of several): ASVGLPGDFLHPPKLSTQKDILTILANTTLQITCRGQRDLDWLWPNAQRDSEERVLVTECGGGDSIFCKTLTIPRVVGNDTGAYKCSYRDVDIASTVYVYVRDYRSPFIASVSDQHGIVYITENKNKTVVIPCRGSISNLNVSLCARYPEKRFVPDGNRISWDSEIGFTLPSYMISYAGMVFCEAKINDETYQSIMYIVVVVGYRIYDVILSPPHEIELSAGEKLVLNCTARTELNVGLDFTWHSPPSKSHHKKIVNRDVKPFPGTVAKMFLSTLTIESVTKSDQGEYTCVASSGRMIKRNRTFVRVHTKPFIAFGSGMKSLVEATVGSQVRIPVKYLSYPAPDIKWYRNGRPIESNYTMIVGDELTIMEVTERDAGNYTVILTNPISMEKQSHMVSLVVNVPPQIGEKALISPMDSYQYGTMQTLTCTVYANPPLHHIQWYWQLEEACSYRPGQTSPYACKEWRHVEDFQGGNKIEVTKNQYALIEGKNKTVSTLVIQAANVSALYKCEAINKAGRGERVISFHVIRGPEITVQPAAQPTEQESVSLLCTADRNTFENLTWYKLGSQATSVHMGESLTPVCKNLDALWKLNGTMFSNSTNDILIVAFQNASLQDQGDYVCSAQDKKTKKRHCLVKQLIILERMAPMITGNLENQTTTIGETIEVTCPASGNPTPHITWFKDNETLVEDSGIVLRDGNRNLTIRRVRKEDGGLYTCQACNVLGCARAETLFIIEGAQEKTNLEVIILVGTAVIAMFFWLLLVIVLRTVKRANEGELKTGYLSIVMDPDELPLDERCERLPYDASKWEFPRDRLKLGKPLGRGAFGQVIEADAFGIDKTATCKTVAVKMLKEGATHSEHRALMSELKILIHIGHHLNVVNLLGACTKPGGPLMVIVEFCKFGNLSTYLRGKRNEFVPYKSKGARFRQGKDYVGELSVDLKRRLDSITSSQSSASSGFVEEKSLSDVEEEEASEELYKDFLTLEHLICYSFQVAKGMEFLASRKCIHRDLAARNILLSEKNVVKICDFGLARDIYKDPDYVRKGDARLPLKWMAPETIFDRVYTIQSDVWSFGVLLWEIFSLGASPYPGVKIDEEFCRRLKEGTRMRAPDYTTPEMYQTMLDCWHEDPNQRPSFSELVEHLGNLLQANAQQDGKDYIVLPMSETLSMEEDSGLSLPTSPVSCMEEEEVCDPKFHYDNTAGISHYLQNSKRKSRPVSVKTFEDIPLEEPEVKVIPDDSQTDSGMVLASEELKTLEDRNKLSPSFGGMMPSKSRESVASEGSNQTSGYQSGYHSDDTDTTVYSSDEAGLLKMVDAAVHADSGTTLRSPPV
Chain of FGFR1-Fc (P11362 22-376 limits assumed): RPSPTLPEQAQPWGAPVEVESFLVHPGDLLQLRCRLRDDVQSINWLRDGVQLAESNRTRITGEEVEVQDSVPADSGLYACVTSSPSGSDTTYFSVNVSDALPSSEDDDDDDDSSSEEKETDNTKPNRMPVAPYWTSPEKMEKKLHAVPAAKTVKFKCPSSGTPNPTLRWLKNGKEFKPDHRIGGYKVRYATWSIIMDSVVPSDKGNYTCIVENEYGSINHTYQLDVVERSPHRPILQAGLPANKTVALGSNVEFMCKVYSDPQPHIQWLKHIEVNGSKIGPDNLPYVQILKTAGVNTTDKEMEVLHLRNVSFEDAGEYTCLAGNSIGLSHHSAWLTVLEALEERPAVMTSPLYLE

One may read the Kd as a measure of binding affinity in units of concentration. Turning to “VEGF-B167 (from UniProt P49765 22-207) (ligand)”, the results for the Kd in the assay with human FGFR2-Fc (human) and with FGFR1-Fc were 112 nM and 15 nM, respectively.

B1: FGFR2 of C57B16 mouse tissue and mouse primary SMC (receptor, UniProt P21803 22-821, looked up)
chain: RPSFSLVEDTTLEPEEPPTKYQISQPEAYVVAPGESLELQCMLKDAAVISWTKDGVHLGPNNRTVLIGEYLQIKGATPRDSGLYACTAARTVDSETWIFMVNVTDAISSGDDEDDTDSSEDVVSENRSNQRAPYWTNTEKMEKRLHACPAANTVKFRCPAGGNPTSTMRWLKNGKEFKQEHRIGGYKVRNQHWSLIMESVVPSDKGNYTCLVENEYGSINHTYHLDVVERSPHRPILQAGLPANASTVVGGDVEFVCKVYSDAQPHIQWIKHVEKNGSKNGPDGLPYLKVLKAAGVNTTDKEIEVLYIRNVTFEDAGEYTCLAGNSIGISFHSAWLTVLPAPVREKEITASPDYLEIAIYCIGVFLIACMVVTVIFCRMKTTTKKPDFSSQPAVHKLTKRIPLRRQVTVSAESSSSMNSNTPLVRITTRLSSTADTPMLAGVSEYELPEDPKWEFPRDKLTLGKPLGEGCFGQVVMAEAVGIDKDKPKEAVTVAVKMLKDDATEKDLSDLVSEMEMMKMIGKHKNIINLLGACTQDGPLYVIVEYASKGNLREYLRARRPPGMEYSYDINRVPEEQMTFKDLVSCTYQLARGMEYLASQKCIHRDLAARNVLVTENNVMKIADFGLARDINNIDYYKKTTNGRLPVKWMAPEALFDRVYTHQSDVWSFGVLMWEIFTLGGSPYPGIPVEELFKLLKEGHRMDKPTNCTNELYMMMRDCWHAVPSQRPTFKQLVEDLDRILTLTTNEEYLDLTQPLEQYSPSYPDTSSSCSSGDDSVFSPDPMPYEPCLPQYPHINGSVKT
notes: Endogenous protein in tissue lysate (co-immunoprecipitation) or on cells (proximity ligation assay)
With B1, the binding result in assay [1] was “no binding”.

B2: FGFR1 of C57B16 mouse retina and brain tissue (receptor, UniProt P16092 22-822, looked up)
chain: RPAPTLPEQAQPWGVPVEVESLLVHPGDLLQLRCRLRDDVQSINWLRDGVQLVESNRTRITGEEVEVRDSIPADSGLYACVTSSPSGSDTTYFSVNVSDALPSSEDDDDDDDSSSEEKETDNTKPNRRPVAPYWTSPEKMEKKLHAVPAAKTVKFKCPSSGTPNPTLRWLKNGKEFKPDHRIGGYKVRYATWSIIMDSVVPSDKGNYTCIVENEYGSINHTYQLDVVERSPHRPILQAGLPANKTVALGSNVEFMCKVYSDPQPHIQWLKHIEVNGSKIGPDNLPYVQILKTAGVNTTDKEMEVLHLRNVSFEDAGEYTCLAGNSIGLSHHSAWLTVLEALEERPAVMTSPLYLEIIIYCTGAFLISCMLGSVIIYKMKSGTKKSDFHSQMAVHKLAKSIPLRRQVTVSADSSASMNSGVLLVRPSRLSSSGTPMLAGVSEYELPEDPRWELPRDRLVLGKPLGEGCFGQVVLAEAIGLDKDKPNRVTKVAVKMLKSDATEKDLSDLISEMEMMKMIGKHKNIINLLGACTQDGPLYVIVEYASKGNLREYLQARRPPGLEYCYNPSHNPEEQLSSKDLVSCAYQVARGMEYLASKKCIHRDLAARNVLVTEDNVMKIADFGLARDIHHIDYYKKTTNGRLPVKWMAPEALFDRIYTHQSDVWSFGVLLWEIFTLGGSPYPGVPVEELFKLLKEGHRMDKPSNCTNELYMMMRDCWHAVPSQRPTFKQLVEDLDRIVALTSNQEYLDLSIPLDQYSPSFPDTRSSTCSSGEDSVFSHEPLPEEPCLPRHPTQLANSGLKRR
notes: Endogenous protein in tissue lysate
Take B2: the binding result in assay [2] is on record as “no binding”.
